In paper PMC3706957, “Ion Mobility Spectrometry-Mass Spectrometry of Intrinsically Unfolded Proteins: Trying to Put Order into Disorder” (Current Analytical Chemistry, 2013):
Bridge positions count the residues as written; N and C are the ends. Square brackets hold non-standard residues; d marks the D form. Ends that are not written are not given here. Gla = N[C@@H](CC(C(=O)O)C(=O)O)C(=O)O

B1: bovine osteocalcin (natural protein, UniProt P02820 52-100, looked up)
chain: YLDHWLGAPAPYPDPL[Gla]PKR[Gla]VC[Gla]LNPDCDELADHIGFQEAYRRFYGPV
modifications: disulfide 23-29
notes: also called apo-osteocalcin; apo-OST; source: purified from bovine bone tissue (EDTA extraction, size exclusion and ion exchange chromatography)

Assays:
[1] = target: osteocalcin_(17-49) proteolysis fragment (bovine); assay: native MS; ESI-IMS-MS of the limited proteolysis mixture of full length calcium-bound holo-osteocalcin at neutral pH (enzyme:substrate 1:300, ammonium acetate); dimer seen as 6+ ions in the drift time distribution of the 3+ ions
[2] = target: the molecule itself; assay: native MS; ESI-IMS-MS (nanoESI, travelling wave ion mobility), pH 7, 20 mM ammonium acetate (methods) or 1:1 5 mM ammonium acetate: ammonium formate; protein alone and with Ca^2+, Cu^+ or Zn^2+ salt at protein:salt 1:10; dimer told apart from monomer by drift time and isotope pattern; dimer peak increased significantly with metal ions

Molecule	stoichiometry N [1]	stoichiometry N [2]
osteocalcin_(17-49) proteolysis fragment (domain or fragment)	2	–
B1	–	2
